According to article PMC12603323:

Experiments:
[1] = HA-Ub, MYC-β-catenin IP, 293T; settings: glycan lost; control: SPOP-WT
WB, CRC cells = settings: glycan lost; control: SPOP-WT
[2] = HA-Ub co-transfection, IP, 293T; settings: glycan lost; control: SPOP-WT
WB of SPOP, HCT116 = settings: glycan lost; control: untreated cells

Row | Protein | other: substrate β-catenin ubiquitination [1] | other: substrate β-catenin protein level (WB, CRC cells) | other: ubiquitination of SPOP [2] | expression_or_secretion (WB of SPOP, HCT116)
1 | SPOP (Speckle-type POZ protein): S58/59 A (protein) parent chain: MSRVPSPPPPAEMSSGPVAESWCYTQIKVVKFSYMWTINNFSFCREEMGEVIKSSTFSSGANDKLKWCLRVNPKGLDEESKDYLSLYLLLVSCPKSEVRAKFKFSILNAKGEETKAMESQRAYRFVQGKDWGFKKFIRRDFLLDEANGLLPDDKLTLFCEVSVVQDSVNISGQNTMNMVKVPECRLADELGGLWENSRFTDCCLCVAGQEFQAHKAILAARSPVFSAMFEHEMEESKKNRVEINDVEPEVFKEMMCFIYTGKAPNLDKMADDLLAAADKYALERLKVMCEDALCSNLSVENAAEILILADLHSADQLKTQAVDFINYHASDVLETSGWKSMVVSHPHLVAEAYRSLASAQCPFLGPPRKRLKQS | increases | decreases | increases | –
2 | SPOP (Speckle-type POZ protein): OSMI-1 (protein) parent chain: MSRVPSPPPPAEMSSGPVAESWCYTQIKVVKFSYMWTINNFSFCREEMGEVIKSSTFSSGANDKLKWCLRVNPKGLDEESKDYLSLYLLLVSCPKSEVRAKFKFSILNAKGEETKAMESQRAYRFVQGKDWGFKKFIRRDFLLDEANGLLPDDKLTLFCEVSVVQDSVNISGQNTMNMVKVPECRLADELGGLWENSRFTDCCLCVAGQEFQAHKAILAARSPVFSAMFEHEMEESKKNRVEINDVEPEVFKEMMCFIYTGKAPNLDKMADDLLAAADKYALERLKVMCEDALCSNLSVENAAEILILADLHSADQLKTQAVDFINYHASDVLETSGWKSMVVSHPHLVAEAYRSLASAQCPFLGPPRKRLKQS | – | – | – | increases
